Where two headings read alike, the source gives them in different places. Each block holds one molecule with its values, some of them ahead of it.
What was measured:
[1] = target: AcrVIB1-His (R. anatipestifer); assay: MST
[2] = target: AcrVIB1 (R. anatipestifer); assay: other fluorescence titration
[3] = target: AcrVIB1 (R. anatipestifer); assay: SEC-MALS
[4] = target: T1, PbuCas13b (UniProt E6K398 1-1127); assay: MST
T1 sequence: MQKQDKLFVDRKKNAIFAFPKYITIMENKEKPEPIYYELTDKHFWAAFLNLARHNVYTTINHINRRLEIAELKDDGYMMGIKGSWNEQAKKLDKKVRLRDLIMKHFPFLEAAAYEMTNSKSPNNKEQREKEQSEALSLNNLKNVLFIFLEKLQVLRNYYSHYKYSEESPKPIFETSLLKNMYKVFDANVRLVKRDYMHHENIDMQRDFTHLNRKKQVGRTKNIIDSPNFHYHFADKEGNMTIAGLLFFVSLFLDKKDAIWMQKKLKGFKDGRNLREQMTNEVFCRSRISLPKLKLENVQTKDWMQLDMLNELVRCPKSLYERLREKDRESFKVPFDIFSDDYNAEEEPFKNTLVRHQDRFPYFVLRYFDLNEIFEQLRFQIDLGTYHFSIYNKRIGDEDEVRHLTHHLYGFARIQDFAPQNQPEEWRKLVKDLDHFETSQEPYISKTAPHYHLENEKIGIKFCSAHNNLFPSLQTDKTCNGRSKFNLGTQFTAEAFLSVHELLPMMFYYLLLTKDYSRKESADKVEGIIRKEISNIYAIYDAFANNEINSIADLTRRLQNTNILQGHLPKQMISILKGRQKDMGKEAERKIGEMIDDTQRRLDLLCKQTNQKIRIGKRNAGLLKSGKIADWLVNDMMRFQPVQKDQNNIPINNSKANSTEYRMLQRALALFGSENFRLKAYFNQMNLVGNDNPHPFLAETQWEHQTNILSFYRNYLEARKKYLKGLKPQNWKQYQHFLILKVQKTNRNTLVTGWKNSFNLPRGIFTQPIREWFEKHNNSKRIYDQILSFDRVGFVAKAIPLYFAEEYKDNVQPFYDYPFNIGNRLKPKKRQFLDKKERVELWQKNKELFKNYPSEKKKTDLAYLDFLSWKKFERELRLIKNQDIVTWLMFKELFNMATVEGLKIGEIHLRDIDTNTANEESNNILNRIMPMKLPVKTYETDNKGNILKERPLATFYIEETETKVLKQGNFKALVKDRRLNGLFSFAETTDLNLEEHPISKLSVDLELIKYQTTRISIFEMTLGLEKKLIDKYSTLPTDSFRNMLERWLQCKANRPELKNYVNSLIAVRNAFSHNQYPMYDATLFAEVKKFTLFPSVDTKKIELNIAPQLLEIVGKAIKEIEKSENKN

[5] = target: T1, PbuCas13b; assay: MST; remark: listed apart in the source

B1: crRNA-1 processed (KW-RNA-002) (structured_RNA)
RNA: CGUCGCCGUCCAGCUCGACCAGGAUGGGAAGUUGCAUCUGCCUUCUUUUUGAAAGGUAAAAACAAC
Kd [4]: ~1000 nM

B2: crRNA-1 processed / target RNA 1 (KW-RNA-005) (mixed)
RNA 1: B1 RNA
RNA 2: ACUGGCGUUGUUCCCAUCCUGGUCGAGCUGGACGGCGACGUAAACGGCCA
Kd [5]: 85 nM

Further lines, results first:

Kd [1]: 44 nM
Molecule: PbuCas13b (enzyme)

Kd [2]: 251 nM
stoichiometry N [3]: 1
Molecule: PbuCas13b Helical-2 domain (residues 579 - 747) (domain or fragment)
